B3: α-actin (endogenous T. vaginalis) (natural protein)
chain: not shown
notes: T. vaginalis α-actin detected by anti-α-actin antibody; other actin genes of the parasite may be detected too; also called F-actin; TvActin; source: endogenous, T. vaginalis TH17 lysate

How the values were obtained:
[1] = biological target: T1, tagless recombinant TvActin (rTvActin) (Trichomonas vaginalis, UniProt P90623 1-376); assay: TIRF microscopy; 6 μM G-rTvActin (10% Alexa Fluor 488-labelled) polymerising in TIRF buffer on NEM-myosin II-coated flow cell with 300 nM His-TvFACPα; Alexa Fluor 555-His-TvFACPα seen at the barbed end; conditions: both partners purified
T1 construct: T. vaginalis α-actin (TvActin), TVAG_337240; Monomeric (G-) in G-buffer, polymerised (F-) in F-buffer; the assay's format tells which; 10% pyrene-labelled in the pyrene assay and 10% Alexa Fluor 488-labelled in TIRF microscopy; also called G-rTvActin; F-rTvActin; source: E. coli BL21, GST-TvActin cleaved with thrombin, purified (heparin-Sepharose, Sephacryl S-300 gel filtration)

[2] = biological target: B3; assay: co-sedimentation; actin fractionation of trophozoite lysates (Cytoskeleton Inc. kit): 100,000 × g for 1 h, F-actin and associated proteins in the pellet; Western blotting; nontransgenic and transgenic TH17, flagellate and amoeboid forms, DMSO or TBB, T1 isolate; conditions: partners not purified
HA-TvFACPα(S2A) = biological target: T2, HA-TvFACPα(S2A) (Trichomonas vaginalis, UniProt A2FE30 1-261, S2A); assay: co-IP; anti-HA agarose beads on lysates of TH17 trophozoites overexpressing HA-TvFACPα or its mutants (1% Triton X-100, 5 mM EDTA in TBS, 4°C overnight); Western blotting for α-actin and α-actinin; also after DMSO or TBB (CKII inhibitor) treatment; conditions: partners not purified
T2 construct: T. vaginalis F-actin capping protein subunit α (TvFACPα), TVAG_470230; source: transgenic T. vaginalis TH17 trophozoites (Flp-HA-TvFACPα(S2A) plasmid), overexpressed, in lysate
T2 sequence: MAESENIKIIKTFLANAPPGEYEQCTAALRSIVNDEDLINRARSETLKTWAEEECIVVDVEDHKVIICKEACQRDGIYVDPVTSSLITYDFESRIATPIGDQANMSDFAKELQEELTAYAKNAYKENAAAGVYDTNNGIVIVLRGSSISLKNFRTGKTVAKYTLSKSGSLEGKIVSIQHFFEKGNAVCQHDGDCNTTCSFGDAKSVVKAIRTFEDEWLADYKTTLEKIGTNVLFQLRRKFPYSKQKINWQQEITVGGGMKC

B1: Alexa Fluor 555-His-TvFACPα (natural protein)
chain: MSESENIKIIKTFLANAPPGEYEQCTAALRSIVNDEDLINRARSETLKTWAEEECIVVDVEDHKVIICKEACQRDGIYVDPVTSSLITYDFESRIATPIGDQANMSDFAKELQEELTAYAKNAYKENAAAGVYDTNNGIVIVLRGSSISLKNFRTGKTVAKYTLSKSGSLEGKIVSIQHFFEKGNAVCQHDGDCNTTCSFGDAKSVVKAIRTFEDEWLADYKTTLEKIGTNVLFQLRRKFPYSKQKINWQQEITVGGGMKC
modifications: Alexa Fluor 555 maleimide label (residue not stated)
notes: T. vaginalis F-actin capping protein subunit α (TvFACPα), TVAG_470230, 267 amino acids; m6 after dye labelling; source: recombinant from pET28-His-TvFACPα, purified, labelled with Alexa Fluor 555 maleimide
B1: binds [1].

B2: HA-TvFACPα (natural protein)
chain: MSESENIKIIKTFLANAPPGEYEQCTAALRSIVNDEDLINRARSETLKTWAEEECIVVDVEDHKVIICKEACQRDGIYVDPVTSSLITYDFESRIATPIGDQANMSDFAKELQEELTAYAKNAYKENAAAGVYDTNNGIVIVLRGSSISLKNFRTGKTVAKYTLSKSGSLEGKIVSIQHFFEKGNAVCQHDGDCNTTCSFGDAKSVVKAIRTFEDEWLADYKTTLEKIGTNVLFQLRRKFPYSKQKINWQQEITVGGGMKC
notes: T. vaginalis F-actin capping protein subunit α (TvFACPα), TVAG_470230, 267 amino acids; source: transgenic T. vaginalis TH17 trophozoites (Flp-HA-TvFACPα plasmid), overexpressed, in lysate
In the case of B2, the “fold change of cosedimented level against endogenous TvFACPα in the nontransfectant” value [2] is reported as roughly 2 fold.

B3 was tested, and the “fold change of coimmunoprecipitated α-actin signal against HA-TvFACPα” value (HA-TvFACPα(S2A)) was 3 fold.

Reference: publication PMC10434240, “An Atypical F-Actin Capping Protein Modulates Cytoskeleton Behaviors Crucial for Trichomonas vaginalis Colonization” (Microbiology Spectrum, 2023)
